Reference: PMC9205905, “Core and rod structures of a thermophilic cyanobacterial light-harvesting phycobilisome” (Nature Communications, 2022)

Target: the molecule itself
Assay: cryo-EM structure; PC rods dissociated from intact PBSs on the grid by dilution with 10 mM phosphate buffer (phosphate below 0.5 M); single-particle cryo-EM, no symmetry, 4.2 Å

B1: PC monomer (CpcA/CpcB αβ monomer) (complex)
chain 1: not shown
chain 2: MLDAFAKVVAQADARGEFLTNAQFDALSNLVKEGNKRLDAVNRITSNASTIVANAARALFAEQPQLIQPGGNAYTNRRMAACLRDMEIILRYVTYAILAGDSSVLDDRCLNGLRETYQALGTPGSSVAVAIQKMKDAAIAIANDPNGITPGDCSALMSEIAGYFDRAAAAVA
modifications: phycocyanobilin (PCB) at residue 84 (α84) | phycocyanobilin (PCB) at residues 84 and 155 (β84, β155)
  stoichiometry N: 6
